# Data reported in article PMC2978023 (Journal of immunology (Baltimore, Md. : 1950), 2008).
# B1: Fas ligand: promotes PMN death via interaction with its receptor on the cell surface (protein, UniProt P48023 130-281, looked up)
# Tumor necrosis factor ligand …: QIGHPSPPPEKKELRKVAHLTGKSNSRSMPLEWEDTYGIVLLSGVKYKKGGLVINETGLYFVYSKVYFRGQSCNNLPLSHKVYMRNSKYPQDLVMMEGKMMSYCTTGQMWARSSYLGAVFNLTSADHLYVNVSELSLVNFEESQTFFGLYKL
# B2: plasmin (protein, UniProt P00747 20-580; P00747 581-810, looked up)
# Plasmin heavy chain A: EPLDDYVNTQGASLFSVTKKQLGAGSIEECAAKCEEDEEFTCRAFQYHSKEQQCVIMAENRKSSIIIRMRDVVLFEKKVYLSECKTGNGKNYRGTMSKTKNGITCQKWSSTSPHRPRFSPATHPSEGLEENYCRNPDNDPQGPWCYTTDPEKRYDYCDILECEEECMHCSGENYDGKISKTMSGLECQAWDSQSPHAHGYIPSKFPNKNLKKNYCRNPDRELRPWCFTTDPNKRWELCDIPRCTTPPPSSGPTYQCLKGTGENYRGNVAVTVSGHTCQHWSAQTPHTHNRTPENFPCKNLDENYCRNPDGKRAPWCHTTNSQVRWEYCKIPSCDSSPVSTEQLAPTAPPELTPVVQDCYHGDGQSYRGTSSTTTTGKKCQSWSSMTPHRHQKTPENYPNAGLTMNYCRNPDADKGPWCFTTDPSVRWEYCNLKKCSGTEASVVAPPPVVLLPDVETPSEEDCMFGNGKGYRGKRATTVTGTPCQDWAAQEPHRHSIFTPETNPRAGLEKNYCRNPDGDVGGPWCYTTNPRKLYDYCDVPQCAAPSFDCGKPQVEPKKCPGR
# Plasmin light chain B: VVGGCVAHPHSWPWQVSLRTRFGMHFCGGTLISPEWVLTAAHCLEKSPRPSSYKVILGAHQEVNLEPHVQEIEVSRLFLEPTRKDIALLKLSSPAVITDKVIPACLPSPNYVVADRTECFITGWGETQGTFGAGLLKEAQLPVIENKVCNRYEFLNGRVQSTELCAGHLAGGTDSCQGDSGGPLVCFEKDKYILQGVTSWGLGCARPNKPGVYVRVSRFVTWIEGVMRNN
# modifications: Plasmin
# Tests used:
# [1] = system: PMN; details: cited from earlier work
# [2] = system: monocytes; details: PAR-1-dependent; ref [29]; cited from earlier work
# [3] = system: human PMNs; details: PMN; data not shown
molecule,measurement,setting,value
B1,effect on PMN death,[1],promote PMN death
B2,effect on TNF-α-induced apoptosis in monocytes,[2],inhibits TNF-α-induced apoptosis in monocytes
same,prosurvival/cytoprotective effect on PMN (in words),[3],did not exert a cytoprotective function
